Experimental data reported in patent US20140255408A1 (Janssen / Centocor, published 2014).
Changes are numbered by the printed parent chain.

B1: P114AR7P95-H8 (designed binder, not shown: small tags and cut ends)
chain: LPAPKNLVVSRVTEDSARLSWTAPDAAFDSFWIRYFEFVSKGEAIVLTVPGSERSYDLTGLKPGTEYVVNIMGVKGGSISPPLSAIFTT
B2: P114AR7P92-F6 (designed binder, not shown: small tags and cut ends)
chain: B1 chain with V39L, S40G, K41S, M72L, S78G, I79L, P81V
B3: P114AR7P95-D4 (designed binder, not shown: small tags and cut ends)
chain: B1 chain with V39L, S40G, K41S, N70Q, M72L, S78Y, P81I
B4: P114AR7P94-E5 (designed binder, not shown: small tags and cut ends)
chain: B1 chain with V39L, S40G, K41S, V68A, S78R, I79V, P81V
B5: P114AR7P94-A3 (designed binder, not shown: small tags and cut ends)
chain: B1 chain with V39L, S40G, K41S, S78K
B6: P114AR7P95-F10 (designed binder, not shown: small tags and cut ends)
chain: B1 chain with V39T, S40T, K41A
B7: P114AR7P92-H5 (designed binder, not shown: small tags and cut ends)
chain: B1 chain with F36L, V39L, S40L, K41G, N70Q, S78T, I79V
B8: P114AR7P93-D11 (designed binder, not shown: small tags and cut ends)
chain: B1 chain with V39L, S40G, K41S, N70G, M72N, S78Y, P81Y
B9: P114AR7P92-G8 (designed binder, not shown: small tags and cut ends)
chain: B1 chain with W32V, V39L, S40G, K41S, N70Q, M72L, S78Y, P81I
B10: P114AR7P93-H9 (designed binder, not shown: small tags and cut ends)
chain: B1 chain with V39L, S40G, K41S, N70Q, M72I, S78H, P81L
B11: P114AR7P93-G8 (designed binder, not shown: small tags and cut ends)
chain: B1 chain with V39L, S40G, K41S, G60D, V68G, N70T, M72N, S78R, I79V, P81T
B12: P114AR7P95-E3 (designed binder, not shown: small tags and cut ends)
chain: B1 chain with V39L, S40G, K41S, N70Q, S78T, I79V
B13: P114AR7P95-G7 (designed binder, not shown: small tags and cut ends)
chain: B1 chain with F38L, V39L, K41T
B14: ECB95 (designed binder)
chain: MLPAPKNLVVSEVTEDSARLSWDDPWAFYESFLIQYQESEKVGEAIVLTVPGSERSYDLTGLKPGTEYTVSIYGVHNVYKDTNIRGLPLSAIFTTAPAPAPAPAPLPAPKNLVVSRVTEDSARLSWTAPDAAFDSFWIRYFEFVGSGEAIVLTVPGSERSYDLTGLKPGTEYVVNILGVKGGSISPPLSAIFTT
notes: not shown: C-terminal poly-histidine tag
B15: ECB106 (designed binder)
chain: B14 chain with W26H, V144L, S183K
notes: as for B14
B16: ECB107 (designed binder)
chain: B14 chain with W26H
notes: as for B14
B17: ECB108 (designed binder)
chain: B14 chain with W26H, G145S, S146K, E148D
notes: as for B14
B18: ECB94 (designed binder)
chain: B14 chain with V144L, S183K
notes: as for B14
B19: ECB109 (designed binder)
chain: B14 chain with W26H, V144L, G178S
notes: as for B14
B20: ECB97 (designed binder)
chain: B14 chain with V144L, G178S
notes: as for B14
B21: ECB96 (designed binder)
chain: B14 chain with G145S, S146K, E148D
notes: as for B14
B22: ECB15 (designed binder)
chain: B14 chain with I84M, V144L, L177M, S183K
notes: as for B14
B23: P114AR7P95-D3 (designed binder, not shown: small tags and cut ends)
chain: B1 chain with V39L, S40G, K41S, P81Y
B24: P114AR7P92-F3 (designed binder, not shown: small tags and cut ends)
chain: B1 chain with V39L, S40G, K41S, V68I, P81H
B25: P114AR5P75-E9 (designed binder, not shown: small tags and cut ends)
chain: LPAPKNLVVSRVTEDSARLSWTAPDAAFDSFFIRYDEFLRSGEAIVLTVPGSERSYDLTGLKPGTEYWVTILGVKGGLVSTPLSAIFTT
B26: P114AR7P95-B9 (designed binder, not shown: small tags and cut ends)
chain: B1 chain with V39L, S40G, K41S, N70Q, M72L, P81V
B27: P54AR4-47 (designed binder)
chain: LPAPKNLVVSEVTEDSLRLSWWDPFSFYDSFLIQYQESEKVGEAINLTVPGSERSYDLTGLKPGTEYTVSIYGVHNVYKDTNMRGLPLSAEFTT

What follows are binders tested against T1, human c-Met on cells (human, UniProt P08581 25-1390) (assay: H441 cell binding assay, anti-His detection).
T1 construct: c-Met on NCI-H441, NCI-H292, NCI-H1975 and U87-MG cells; in U-2 OS cells a beta-galactosidase fragment was fused to its C-terminus; also called hepatocyte growth factor receptor
Experimental: Purified FN3 domains (50 μL/well; 0 to 1000 nM) were added to the cells for 1 hour at 4° C. in duplicate plates. […] Cells were incubated with biotinylated-anti HIS antibody (diluted 1:160 in FACS stain buffer, 50 μL/well, R&D Systems, cat #BAM050) for 30 minutes at 4° C. […] Cells were washed three times with FACS stain buffer (150 μL/well) and left in FACS stain buffer (50 μL/well).

Binder	EC50 [nM]
B1	4.1
B2	4.9
B3	1.4
B4	3.4
B5	1.4
B6	4.4
B7	22
B8	2.3
B9	5.9
B10	12.9
B11	3.8
B12	3.2
B13	11.3

Each binder was assayed against T2, recombinant human extracellular domain of EGFR fused to an IgG1 Fc (human, UniProt P00533 25-645) (assay: SPR (ProteOn), protocol of Example 3, recombinant EGFR extracellular domain).
T2 construct: Bought from R&D Systems; The residues are stated for the panning reagent; also called EGFR-Fc; EGF R-Fc; not shown: IgG1 Fc
Experimental: All 6 analyte channels were used for the FN3 domains to maximize screening throughput. The dissociation phase was monitored for 10 minutes at a flow rate of 100 μL/min. The inter-spot binding signals were used as references to monitor non-specific binding between analytes and the immobilized IgG surface, and were subtracted from all binding responses. The processed binding data were locally fit to a 1:1 simple Langmuir binding model to extract the koff for each FN3 domain binding to captured EGFR-Fc.
Binding affinity of selected EGFR-binding FN3 domains to recombinant EGFR extracellular domain was further characterized by surface Plasmon resonance methods using a Proteon Instrument (BioRad). The assay set-up (chip preparation, EGFR-Fc capture) was similar to that described above for off-rate analysis. Selected EGFR binding FN3 domains were tested at 1 μM concentration in 3-fold dilution series in the horizontal orientation. A buffer sample was also injected to monitor the baseline stability. […] Two sets of reference data were subtracted from the response data: 1) the inter-spot signals to correct for the non-specific interactions between the EGFR-binding FN3 domain and the immobilized IgG surface; 2) the buffer channel signals to correct for baseline drifting due to the dissociation of captured EGFR-Fc surface over time. The processed binding data at all concentrations for each FN3 domain were globally fit to a 1:1 simple Langmuir binding model to extract estimates of the kinetic (kₘ, koff) and affinity (KD) constants.

Binder	Kd [nM]
B14	1.1
B15	16.7
B16	16.9
B17	15.3
B18	1
B19	17.3
B20	1.3
B21	1.6
B22	0.2

The binders below were run against T3, Recombinant human c-Met Fc chimera (human, UniProt P08581 16-932) (assay: SPR (ProteOn), protocol of Example 3, recombinant c-Met extracellular domain).
T3 construct: not shown: Fc part

Binder	Kd [nM]
B14	6.2
B15	5.1
B16	9
B17	25.5
B18	4.3
B19	2.1
B20	1.7
B21	22.1
B22	2.6

What follows are binders tested against T1, human c-Met on cells (assay: cell-based or functional assay).

Binder	pMet inhibition in H441 cells (IC50)	Inhibition of Proliferation of U87-MG cells (IC50) [nM]
B23	4.6 nM	–
B1	210 nM	281
B2	165 nM	350
B3	19.5 nM	19.4
B24	8.3 nM	2.7
B4	124 nM	196
B5	5 nM	9.3
B6	188 nM	130
B7	766 nM	672
B8	16 nM	14.4
B9	155 nM	124
B10	288 nM	270
B11	460 nM	104
B25	1.42 µM	1190
B26	9.8 nM	17.4
B12	205 nM	209
B13	659 nM	692

Each binder was assayed against T4, human EGFR on cells (human, UniProt P00533 25-1210) (assay: cell-based or functional assay).

Binder	H292 pEGFR inhibition in H292 cells (IC50) [nM]
B14	13.6
B15	367
B16	812
B17	814
B18	5.1
B19	432
B20	16.6
B21	24.7
B22	4.2

Molecular target: T1, human c-Met on cells
Assay: cell-based or functional assay
Remark: another data set of the same source

Binder	pMet inhibition in H441 cells (IC50) [nM]
B14	179
B15	53.3
B16	29.9
B17	126
B18	53.8
B19	26
B20	24.2
B21	835

Molecular target: T4, human EGFR on cells
Assay: cell-based or functional assay
Remark: another data set of the same source

Binder	Phospho-EGFR IC50 (A431 cells) [nM]
B27	295

These binders were tested against T3, Recombinant human c-Met Fc chimera (assay: SPR (ProteOn), c-Met-Fc captured on anti-human Fc IgG, FN3 domain as analyte).

Binder	Kd [nM]
B23	0.3
B1	3.7
B2	3.1
B3	0.4
B24	0.4
B4	4.2
B5	0.4
B6	4.2
B7	11.6
B9	1
B10	3.3
B11	6.9
B25	45.8
B13	20

The binders below were run against T3, Recombinant human c-Met Fc chimera (assay: HGF competition assay on coated c-Met-Fc, competitor biotinylated HGF).

Binder	IC50 [nM]
B23	0.2
B2	2.2
B24	0.2
B4	0.7
B5	0.2
B6	1.4
B9	1.6
B10	2.9
B11	1
B25	51.9
B26	0.3
